# Measurements reported in patent US20230374087A1, “METHOD TO IMPROVE PROTEIN QUALITY CONTROL” (The Johns Hopkins University, priority 2020, published 2023).
# T1: recombinant human CHIP peptide fragment containing residues 13-30 (Uniprot Q9UNE7), WT
# T1 chain: LGAGGGSPEKSPSAQELK
# T2: recombinant human CHIP peptide fragment containing residues 13-30, S20A
# T2 chain: LGAGGGAPEKSPSAQELK
# Assays:
# [1] = target: T1, recombinant human CHIP peptide fragment …
# [2] = target: T2, recombinant human CHIP peptide fragment …
# Hsc70 = target: T3, Hsc70 (Rattus norvegicus, UniProt P63018); experiment: CHIP-Hsc70 co-immunoprecipitation from myocyte lysate; assay type: cell-based; details: myocytes with or without SI, Hsc70 as bait
# T3 construct: lysate from myocytes with or without exposure to SI were immunoprecipitated using Hsc70 as bait; endogenous in cells; host or cells: neonatal rat cardiomyocytes infected with adenovirus for Myc-tagged CHIP WT, S20E or S20A
# Description: (§1) Tissue and cultured cardiomyocytes were lysed in 1× lysis buffer (Cell Signaling Technology), protein concentration was measured by bicinchoninic acid assay (Pierce), and extracts were subjected to SDS-PAGE using Novex Tris-Glycine Gels (4-20% gradient gel, Life Technologies) or Mini-protean TGX Gels (4-20% gradient gel, Bio-Rad), transferred to nitrocellulose membranes, and probed with various primary antibodies (CHIP (#2080S), Hsc70 (#8444S), p-CHIP S20 (Custom antibody, AbMart Inc., Shanghai, China; Project: 25011-1), Myc (#2276S), GAPDH (#2118S), and α-tubulin (#3878S) (Cell Signaling) and ubiquitin antibody (#SAB4503053) from Sigma), and fluorescence-labeled secondary antibodies (Licor, #926-32211, 926-32210, 926-68023, or 926-68022). Gels were imaged (Odyssey, Licor) and band intensity quantified (Odyssey Software 3.1).
# To test whether thermodynamic stabilization of CHIP-HSC70 due to S20 phosphorylation enhances protein binding, lysate from myocytes with or without exposure to SI were immunoprecipitated using Hsc70 as bait. […] Reduced CHIP-Hsc70 interaction was also observed in vivo following MI in hearts with PKG activation suppressed by mPDE5A/oe, whereas this was enhanced in WT hearts (FIG. 5C, FIG. 14B).
# ubiquitinated proteins = experiment: Western blot of ubiquitinated proteins in NRCMs after SI; assay type: cell-based, rat; details: adenovirus CHIP variant, SI 48 hours, compared to CHIP-WT
# Description: as §1
# [3] = system: neonatal rat cardiomyocytes (NRCMs)
# Description: After overnight culture, subsets of NRCMs were infected with adenovirus (AdV) containing a FLAG-tagged PDE5, FLAG control, Myc-tagged CHIP WT or K31A (provided by Dr. Cam Patterson), S20E or S20A (Welgen Inc., Worcester, MA). Forty-eight hours after infection, cells were exposed to either simulated ischemia (SI) or normal conditions. SI involved incubating cells in DMEM containing deoxyglucose (20 mM), NaCl (125 mM), KCl (8 mM), KH2PO4 (1.2 mM), MgSO4 (1.25 mM), CaCl2) (1.2 mM), NaHCO3(6.25 mM), sodium lactate (5 mM), and HEPES (20 mM) with a pH of 6.6. Cells were then placed in an incubator chamber (Billups-Rothenberg) with 95% nitrogen, 4% carbon dioxide, and 1% oxygen. Normoxic controls were incubated in DMEM supplemented with 10% FBS in air composed of 95% carbon dioxide and 5% oxygen. RNA or protein was harvested after 48 hours of SI. Cells were also treated with sildenafil (1 μM) or vehicle, or small interference RNA (siRNA, 100 pM) specific for rat Stub1 (Qiagen, Cat. #: SI01532251) or scrambled control provided 24 hours after plating and transfected with Xfect (Takara) per manufacturer protocol.
# Lactate dehydrogenase (LDH) leakage and (3-[4,5-dimethylthiazol-2-yl]-2,5-diphenyltetrazolium bromide) (MTT) were assessed in cultured cardiomyocytes and media after SI from the same culture dish. LDH was assayed by commercial assay (Roche) following manufacturer's protocol, read in 96 well microplates on a Spectramax M5 (Molecular Devices) at 490 nm absorbance. For MTT, cells were washed in phosphate-buffered saline, MTT (Sigma-Aldrich) working solution added to the culture dish, incubated at 37° C., solubilized with acidic isopropanol, transferred to a 96 well plate, and read at 570 nm with background subtraction at 650 nm on a Spectramax M5.
# [4] = system: transthyretin (TTR) V122I; experiment: TTR aggregates in NRCMs by confocal microscopy; assay type: cell-based, rat; details: TTR V122I 5 μM, adenovirus, 14 days
# Description: Neonatal rat cardiomyocytes (NRCMs) were cultured in mutant transthyretin (TTR) valine 122 to isoleucine (V122I)-containing medium (5 μM) and transfected with a Chip SE (serine 20 phospho-mimetic) or SA ([…] phospho-null) adenovirus and cultured for 14 days. Cardiomyocytes were stained with phalloidin (red), TTR (green), and nuclei with DAPI (blue).
# TTR-V122I [5] = experiment: TTR abundance in hiPSC-CMs by western blot; assay type: cell-based, human; details: TTR-V122I 5 μM; for TTR accumulation with Lamp2A knockdown: siLamp2A 100 μM; for TTR accumulation: Ad-Chip 10 MOI
# Description: (§2) Human induced pluripotent stem cell derived cardiomyocytes (hiPSC-CMs) were infected with Ad-Chip WT, SE, or SA (10 MOI), in the presence or absence of protein kinase G (PKG) stimulation via cGMP (100 mM) and exposed to media containing TTR-V122I (5 μM) or control for 14 days. Cells were lysed and TTR abundance was determined by western blotting for TTR with a total protein stain used to show equal loading.
# as §2, with “Lamp2A knockdown” for “protein kinase G (PKG) stimulation”, “siRNA (siLamp2A, 100 μM)” for “cGMP (100 mM)”, “loading. Knocking down Lamp2A removes the method of protein degradation known as chaperone mediated autophagy (CMA).” for “loading.”
# Hsp70 (385-641) = target: T4, Hsp70 (385-641) (Homo sapiens, UniProt P0DMV8); experiment: Isothermal titration calorimetry of CHIP-Hsp70 binding; details: ITC, 25° C.; for enthalpy (DH) / entropy (DS): triplicate, average ± SD
# T4 construct: Hsp70 (385-641)
# T4 sequence (P0DMV8 385-641): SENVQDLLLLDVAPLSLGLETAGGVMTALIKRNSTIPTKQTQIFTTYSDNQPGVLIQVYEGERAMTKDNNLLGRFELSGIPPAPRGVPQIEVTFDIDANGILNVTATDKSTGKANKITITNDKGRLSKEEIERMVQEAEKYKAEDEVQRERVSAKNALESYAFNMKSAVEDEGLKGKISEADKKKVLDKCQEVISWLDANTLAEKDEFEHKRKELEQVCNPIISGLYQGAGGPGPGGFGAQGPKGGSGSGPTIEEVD
# Description: Isothermal titration calorimetry was carried out using a TA Instruments NanoITC equilibrated at 25° C. and utilizing a stir speed of 600 rpm. Experiments were conducted in triplicate and data represents the average±one standard deviation. Titrations utilized 350 μM WT or S20E CHIP titrated into 50 µM Hsp70 (385-641) as a series of twenty four 2 μL injections.
# TTR-V122I [6] = experiment: TTR abundance in cardiac fibroblasts by western blot; assay type: cell-based; details: neonatal rat cardiac fibroblasts, WT or SA 10 MOI, SE 0, 2.5, 5 or 10 MOI, TTR-V122I 5 μM, 14 days
# Description: Fibroblasts were isolated from neonatal rat hearts and infected with Ad-Chip WT or SA (10 MOI) or SE (0, 2.5, 5, or 10 MOI) and exposed to media containing TTR-V122I (5 μM) for 14 days. Cells were lysed and TTR abundance was determined by western blotting for TTR with a total protein stain used to show equal loading.
# [7] = target: T5, Hsp40-stimulated ATPase activity of Hsc70 (Homo sapiens, UniProt P11142); experiment: Chaperone refolding ATPase activity assay; assay type: biochemical; details: CHIP 0.5-6 μM, Hsc70 0.5 μM, Hsp40 0.25 μM
# T5 construct: His-tag (N); made in house; host or cells: E. coli BL21(DE3)
# T5 sequence (P11142 whole entry): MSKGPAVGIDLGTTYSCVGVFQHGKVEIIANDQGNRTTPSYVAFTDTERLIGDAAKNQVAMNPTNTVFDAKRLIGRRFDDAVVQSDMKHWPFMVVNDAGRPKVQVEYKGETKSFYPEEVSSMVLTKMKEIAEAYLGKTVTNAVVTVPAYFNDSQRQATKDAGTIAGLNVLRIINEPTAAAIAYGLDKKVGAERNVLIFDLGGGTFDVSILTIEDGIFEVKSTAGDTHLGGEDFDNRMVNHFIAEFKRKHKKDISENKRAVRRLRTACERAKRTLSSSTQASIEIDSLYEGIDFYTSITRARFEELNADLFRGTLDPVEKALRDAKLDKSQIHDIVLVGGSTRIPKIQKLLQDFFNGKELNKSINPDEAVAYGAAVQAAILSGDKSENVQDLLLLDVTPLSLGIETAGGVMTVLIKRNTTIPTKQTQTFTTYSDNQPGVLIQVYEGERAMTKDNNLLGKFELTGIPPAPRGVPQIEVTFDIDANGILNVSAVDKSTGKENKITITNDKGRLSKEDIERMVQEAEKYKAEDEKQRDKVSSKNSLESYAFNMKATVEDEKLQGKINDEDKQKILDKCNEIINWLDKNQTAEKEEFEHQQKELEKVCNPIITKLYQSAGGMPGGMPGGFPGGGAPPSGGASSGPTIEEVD
# Description: Human HSP40 (DnaJB1), human CHIP and CHIP point mutants in pET30a with a C-terminal His-tag and hHsc70 (HSPA8) wild type with an N-terminal His-tag in pCOLA-Duet1 were expressed in BL21(DE3) and purified on Ni-NTA (Qiagen). Hsc70 and CHIP proteins were induced and expressed for 22 hours at 18° C. Hsp40 protein was induced and expressed for 5 hours at 25° C. Required stock solutions of proteins were prepared by diluting high concentrated stocks in protein storage buffer into protein storage buffer, 20 mM HEPES (pH7.4), 150 mM NaCl. Hsc70 and Hsp40 were used at a concentration of 0.5 μM and 0.25 μM, respectively, with a gradient of CHIP protein concentrations (0.5-6 μM). Hsp40-stimulated ATPase activity of Hsc70 was measured using fluorescent polarization with the […]® ADP2 FP Assay (BellBrook Labs, 3010-1K) on a Clariostar plate reader (BMG) in 384 well black, non-binding plates (Greiner, 784900). Optimized instrument settings were used: Excitation wavelength. 590 nm; Emission wavelength: 675 nm; Required value: 5%; Target mP: 20; Gain A: 1824; Gain B: 1854; Focal Height: 12.4 mm. Values of μM ADP formed in the reactions were interpolated from an ATP/ADP standard curve run in parallel.
# myocardial infarction = experiment: Myocardial infarction by coronary ligation in CHIP S20E knock-in mice
# Description: Male and female mice (aged ˜3-4 months) were subjected to transmural myocardial infarction by mid left anterior descending artery ligation under open thoracotomy (25). Controls underwent open chest surgery and LAD isolation without ligation. Data obtained 1-week after infarction included 2D echocardiography (Vevo2100, 20-MHz; Visualsonics) in conscious mice to measure LV volume and ejection fraction, with analysis blinded to study group.
# Myocardium was fixed in 4% paraformaldehyde, paraffin embedded, and sectioned into 4 μm slices, and stained with Masson's Trichrome. Fibrosis was quantified by color-based pixel count and intensity in parallel sections of the ischemic and remote areas (Aperio Image Scope). Transmural infarct size was estimated as the arc angle subtended by dense scar in a mid-MI cross section divided by 360° and expressed as percent. Immunostaining for ubiquitin (Sigma) and CHIP (Cell Signaling) was performed using AlexaFluor 488 conjugated secondary antibodies following the manufacturer's protocol. Counterstain was performed using DAPI (Invitrogen) and Troponin-T (Thermo Scientific) antibodies. Image acquisition was performed on a Leica confocal microscope (TCS SPE II) at 40× magnification.
# [8] = 14 days, no Lamp2A knockdown (Example 8)
Molecule,serine phosphorylation detected by mass spectrometry after incubation with cGMP/PKG [1],serine phosphorylation detected by mass spectrometry after incubation with cGMP/PKG [2],co-precipitation of CHIP and Hsc70 (Hsc70),ubiquitinated proteins after SI (ubiquitinated proteins),SI-induced cytotoxicity (LDH/MTT ratio) [3],TTR positive aggregates [4],TTR accumulation with Lamp2A knockdown (TTR-V122I [5]; 14 days),enthalpy (DH) (Hsp70 (385-641)),entropy (DS) (Hsp70 (385-641)),TTR accumulation (TTR-V122I [6]),inhibition of Hsp70 ATPase activity [7],TTR accumulation (TTR-V122I [5]; 14 days (Example 7)),TTR accumulation (TTR-V122I [5]; [8]),increase of Hsp70 affinity as compared to CHIP-WT (Hsp70 (385-641)),more negative enthalpy as compared to CHIP-WT (Hsp70 (385-641)),Kd (Hsp70 (385-641); read-out: increase of Hsp70 affinity as compared to CHIP-WT),"accumulation of ubiquitinated proteins after MI (myocardial infarction; knock-in mice vs littermate controls, peri-infarct zone)",mortality after MI (myocardial infarction; male homozygotes and heterozygotes vs littermate controls),infarction size after MI (myocardial infarction; male knock-in mice vs littermate controls),"heart function after MI (myocardial infarction; male knock-in mice vs littermate controls, echocardiography)"
"human, active PKG1α purified from Sf9 cells (SRP0371, Sigma) (protein) SELEEDFAKILMLKEERIKELEKRLSEKEEEIQELKRKLHKCQSVLPVPSTHIGPRTTRAQGISAEPQTYRSFHDLRQAFRKFTKSERSKDLIKEAILDNDFMKNLELSQIQEIVDCMYPVEYGKDSCIIKEGDVGSLVYVMEDGKVEVTKEGVKLCTMGPGKVFGELAILYNCTRTATVKTLVNVKLWAIDRQCFQTIMMRTGLIKHTEYMEFLKSVPTFQSLPEEILSKLADVLEETHYENGEYIIRQGARGDTFFIISKGTVNVTREDSPSEDPVFLRTLGKGDWFGEKALQGEDVRTANVIAAEAVTCLVIDRDSFKHLIGGLDDVSNKAYEDAEAKAKYEAEAAFFANLKLSDFNIIDTLGVGGFGRVELVQLKSEESKTFAMKILKKRHIVDTRQQEHIRSEKQIMQGAHSDFIVRLYRTFKDSKYLYMLMEACLGGELWTILRDRGSFEDSTTRFYTACVVEAFAYLHSKGIIYRDLKPENLILDHRGYAKLVDFGFAKKIGFGKKTWTFCGTPEYVAPEIILNKGHDISADYWSLGILMYELLTGSPPFSGPDPMKTYNIILRGIDMIEFPKKIAKNAANLIKKLCRDNPSERLGNLKNGVKDIQKHKWFEGFNWEGLRKGTLTPPIIPSVASPTDTSNFDSFPEDNDEPPPDDNSGWDIDF",Phosphorylation was observed at S20 with wildtype (WT) CHIP,"Phosphorylation was also observed at neighboring S24 and S26, but only when a S20A CHIP mutant was used",,,,,,,,,,,,,,,,,,
"CHIP-S20A: phospho-silenced (phospho-null) CHIP mutant, serine 20 to alanine (protein, left off: small tags and cut ends, phospho-silenced (phospho-null) CHIP mutant, serine 20 to alanine) MKGKEEKEGGARLGAGGGAPEKSPSAQELKEQGNRLFVGRKYPEAAACYGRVITRNPLVAVYYTNRALCYLKMQQHEQALADCRRALELDGQSVKAHFFLGQCQLEMESYDEAIANLQRAYSLAKEQRLNFGDDIPSALRIAKKKRWNSIEERRIHQESELHSYLSRLIAAERERELEECQRNHEGDEDDSHVRAQQACIEAKHDKYMADMDELFSQVDEKRKKRDIPDYLCGKISFELMREPCITPSGITYDRKDIEEHLQRVGHFDPVTRSPLTQEQLIPNLAMKEVIDAFISENGWVEDY",,,co-precipitation was absent,significantly amplified,displayed greater cytotoxicity and blunted the protective effects from SIL,increased TTR positive aggregates,exacerbated the accumulation of TTR,,,,,,,,,,,,,
"CHIP-WT: wild type carboxy terminus of Hsc70-interacting protein (CHIP), recombinant or adenovirus-expressed (protein, left off: small tags and cut ends) MKGKEEKEGGARLGAGGGSPEKSPSAQELKEQGNRLFVGRKYPEAAACYGRVITRNPLVAVYYTNRALCYLKMQQHEQALADCRRALELDGQSVKAHFFLGQCQLEMESYDEAIANLQRAYSLAKEQRLNFGDDIPSALRIAKKKRWNSIEERRIHQESELHSYLSRLIAAERERELEECQRNHEGDEDDSHVRAQQACIEAKHDKYMADMDELFSQVDEKRKKRDIPDYLCGKISFELMREPCITPSGITYDRKDIEEHLQRVGHFDPVTRSPLTQEQLIPNLAMKEVIDAFISENGWVEDY",,,confirmed,,,,exacerbated the accumulation of TTR,-6.31 ± 0.789 kcal/mol,6.09e-06 ± 1.98e-06 kcal/mol,TTR accumulated,dose-dependently inhibited,TTR accumulated,TTR accumulated,,,,,,,
"CHIP-S20E: CHIP with serine 20 to glutamic acid phospho-mimetic substitution; recombinant protein, adenovirus-expressed, or knock-in mouse (protein, left off: small tags and cut ends, CHIP with serine 20 to glutamic acid phospho-mimetic substitution; recombinant protein, adenovirus-expressed, or knock-in mouse) MKGKEEKEGGARLGAGGGEPEKSPSAQELKEQGNRLFVGRKYPEAAACYGRVITRNPLVAVYYTNRALCYLKMQQHEQALADCRRALELDGQSVKAHFFLGQCQLEMESYDEAIANLQRAYSLAKEQRLNFGDDIPSALRIAKKKRWNSIEERRIHQESELHSYLSRLIAAERERELEECQRNHEGDEDDSHVRAQQACIEAKHDKYMADMDELFSQVDEKRKKRDIPDYLCGKISFELMREPCITPSGITYDRKDIEEHLQRVGHFDPVTRSPLTQEQLIPNLAMKEVIDAFISENGWVEDY",,,confirmed,,,,removed the protective effect,-7.67 ± 0.22 kcal/mol,2.34e-06 ± 8.84e-07 kcal/mol,cleared by Chip SE expression in a dose-dependent manner,,cleared,cleared,59%,1.34 kcal/mol,~500 nM,less accumulation of ubiquitinated proteins,lower mortality,reduced infarction size,improved heart function
